In assay [1] the target is SubB S106A/T107A (Escherichia coli) (UniProt Q6EZC3). The assay is described as follows: SPR. (Surface plasmon resonance follows binding to a sensor surface in real time, without labels.)
Assay [2] has as its target SubB ΔS106/ΔT107 (Escherichia coli) (UniProt Q6EZC3). The assay is described as follows: SPR.
For assay [3], the target named is SubB ΔS106/ΔT107/E108D (Escherichia coli) (UniProt Q6EZC3). The assay is described as follows: SPR.
The target of assay [4] is Subtilase cytotoxin B subunit (SubB), wild type (Escherichia coli) (UniProt Q6EZC3). The assay is described as follows: SPR; Biacore T100; SubB or SubB mutant immobilised on a series S CM5 chip (flow cell 1 blank); AGP flowed over, 0.01-100 µM in range finding; single cycle kinetics.

pKd: −log10 of the molar value.

Regarding “human α1-acid glycoprotein (AGP) (from UniProt P02763 19-201) (natural protein)”, the pKd (as a rule, −log10 of the Kd, conventionally taken in molar units) in assay [1] is 6.14; in assay [2], 5.78; in assay [3], 5.55; in assay [4], 5.67.

The record behind these values is PMC5431456.
